Source: article PMC7264293 (2020)

B1: GB1-tagged WIR-peptide V1380A (peptide)
chain: PRDGEPAVTQLHPGPIVVRDGYFSRPIGSTD
B2: GB1-tagged WIR-peptide V1381A (peptide)
chain: PRDGEPVATQLHPGPIVVRDGYFSRPIGSTD
B3: GB1-tagged WIR-peptide T1382A (peptide)
chain: PRDGEPVVAQLHPGPIVVRDGYFSRPIGSTD
B4: GB1-tagged WIR-peptide V1380Q (peptide)
chain: PRDGEPQVTQLHPGPIVVRDGYFSRPIGSTD
B5: GB1-tagged WIR-peptide Y1395A (peptide)
chain: PRDGEPVVTQLHPGPIVVRDGAFSRPIGSTD
B6: GB1-tagged WIR-peptide V1391Q (peptide)
chain: PRDGEPVVTQLHPGPIVQRDGYFSRPIGSTD
B7: GB1-tagged WIR-peptide V1381Q (peptide)
chain: PRDGEPVQTQLHPGPIVVRDGYFSRPIGSTD
B8: GB1-tagged WIR-peptide I1389Q (peptide)
chain: PRDGEPVVTQLHPGPQVVRDGYFSRPIGSTD
B9: GB1-tagged WIR-peptide T1382Q (peptide)
chain: PRDGEPVVQQLHPGPIVVRDGYFSRPIGSTD
B10: GB1-tagged WIR-peptide D1393A (peptide)
chain: PRDGEPVVTQLHPGPIVVRAGYFSRPIGSTD

T1 sequence (Q5MNZ6 other isoform, or with tags, fused parts or gaps with the stated changes): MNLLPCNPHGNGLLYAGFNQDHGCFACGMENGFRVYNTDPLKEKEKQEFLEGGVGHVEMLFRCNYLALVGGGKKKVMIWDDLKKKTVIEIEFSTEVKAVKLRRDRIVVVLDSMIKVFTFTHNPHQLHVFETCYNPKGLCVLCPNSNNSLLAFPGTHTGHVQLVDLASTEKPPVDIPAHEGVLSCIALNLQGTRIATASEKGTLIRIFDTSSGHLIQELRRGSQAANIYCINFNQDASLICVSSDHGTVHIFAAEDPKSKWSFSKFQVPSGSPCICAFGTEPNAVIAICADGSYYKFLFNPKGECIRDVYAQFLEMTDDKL

The binders below were run against T1, WIPI3-Δloop (human, UniProt Q5MNZ6 1-344, Blade 2 B-C loop (75-80) deleted | Blade 6 C-D loop (264-281) deleted) (assay: ITC).
In the case of B1, the Kd is reported as 36.9 µM.
B2 was tested, and the Kd was 75.9 µM.
B3 was tested, and the Kd was 14.2 µM.
B4 was tested, and the Kd was 14.1 µM.

Biological target: T1, WIPI3-Δloop
Experiment: ITC
Remark: another data set of the same source
B5 gave a Kd of 391 µM.
With B6 the Kd was 48.9 µM.
B7 was tested, and the Kd was 82 µM.
B8 was tested, and the Kd was 379 µM.
In the case of B9, the Kd is reported as 37.2 µM.
Binder B10 has a Kd of 44.4 µM.
